Experimental data reported in patent US20150266962A1.

Molecular target: human IL-13Rα2 on the surface of human tumour cell lines (human) (UniProt Q14627)
Experiment: cell-based or functional assay

human IL-13Rα2 on the surface of human tumour cell lines (human), sequence (Q14627 27-380): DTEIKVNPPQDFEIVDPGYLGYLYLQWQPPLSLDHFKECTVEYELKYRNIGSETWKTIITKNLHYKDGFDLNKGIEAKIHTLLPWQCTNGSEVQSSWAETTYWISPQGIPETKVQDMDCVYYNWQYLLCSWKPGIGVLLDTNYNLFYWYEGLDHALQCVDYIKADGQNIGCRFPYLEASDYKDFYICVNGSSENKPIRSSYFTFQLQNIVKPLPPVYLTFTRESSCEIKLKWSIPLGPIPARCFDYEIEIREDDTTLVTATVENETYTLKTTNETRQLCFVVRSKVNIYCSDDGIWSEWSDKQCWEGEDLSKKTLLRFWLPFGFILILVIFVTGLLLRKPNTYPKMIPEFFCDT

| % internalization, 15 min, A375 [%] | % internalization, 15 min, H460R [%] | % internalization, 15 min, Hs766T [%] | % internalization, 15 min, PC3MM2 [%] | % internalization, 4 hours, A375 [%] | % internalization, 4 hours, H460R [%] | % internalization, 4 hours, Hs766T [%] | % internalization, 4 hours, PC3MM2 [%] | Substance | IC50 (ng Ab/mL), in vitro cytotoxicity, A375 [ng Ab/mL] | IC50 (ng Ab/mL), in vitro cytotoxicity, PC3MM2 [ng Ab/mL] |
| --- | --- | --- | --- | --- | --- | --- | --- | --- | --- | --- |
| 49.3 | 57.5 | 60.8 | 60.2 | 68.2 | 49.2 | 73.6 | 49.7 | ab27414 (Abcam), monoclonal mouse IgG1 anti-IL-13Rα2 (antibody) |  |  |
|  |  |  |  |  |  |  |  | hIgG8.8-mc-3377 non-binding control ADC (antibody) | > 400000 | > 400000 |
|  |  |  |  |  |  |  |  | hIgG8.8-vc-0101 non-binding control ADC (antibody) | > 400000 | > 400000 |
